# Measured values taken from a protein production outcome set (Wang et al. 2014).
# Experiment: label from the status in PepcDB records
row,Sequence,protein production
1,MPEQDVPRVRLFGAHELKISDIFDEKKDIYYVPIFQGKDDVNKLHQSAYTGKNTKCAILDSGVLTDHPYLKDRMDAIEDFTGHGFQDREGHGTAVALNLAMTAPDASILIGKVYENDDVPLSEYINRIARGVNWAIDSGARIINLSVGMEKRKEDISNYPGCSEAVKNVCKAITQAIENGISVLVAAGANFPADCHESIIVVGLPGNPVYPKDVHPTVYSPFSPILVPTFLFEGYAHLKMGMYEQALALFKQAADLHPEDHQLWKYQALCRYGLKKYNDAILSFDKALAIKQSDVKTWYLKGITLLALTQNDKAIECFDEVLKLVNNAGLTGMKLTEFSNSISDDWYNMGVYYEQASRYDEAANCYDKAIRIDPLNAKAWNNRGVILAIEEKYEDSIKYFEVATELKPSMVDAWFNKGLALSRIGKYEESIEFFDKAIAIDPASNKALKERIRVSGKLKSKEE,failed
2,ELEPGAFSELYQRYRHCDAPICLYEQGRDSFEDEGRWRLILCATCGSHGTHRDCSSLRPNSKKWECNECLPA,not failed
3,MTKAETSIGVFYVSEYGYSDRLAQAIINGITKTGVGVDVVDLGAAVDLQELRELVGRCTGLVIGMSPAASAASIQGALSTILGSVNEKQAVGIFETGGGDDEPIDPLLSKFRNLGLTTAFPAIRIKQTPTENTYKLCEEAGTDLGQWVTRDRSIKAMKSLGLEHHHHHH,not failed
4,MSQVSTEFIPTRIAILTVSNRRGEEDDTSGHYLRDSAQEAGHHVVDKAIVKENRYAIRAQVSAWIASDDVQVVLITGGTGLTEGDQAPEALLPLFDREVEGFGEVFRMLSFEEIGTSTLQSRAVAGVANKTLIFAMPGSTKACRTAWENIIAPQLDARTRPCNFHPHLKK,not failed
5,MSDSKFLRGTLIVTLGTFLVKFLGMIYVFPFHALVGTEGGTLYTYGYIPYTIFLSIATAGVPLAVSKFVSKYNALGDYKTSRRMFRSGMVMMIVTGVLSFLVLYMTAPLFAEAMLGKQSVHSNIGEVTTIIRLVSFALIVVPAASLIRGYFQGHQSMGPTTVSQIIEQIIRIVFLLAGSFIVIKVLGGTVATAVGVATFAAFVSAVGALGVLIWYWLKRKKHLDQYLIEQTALESTVSTVQLFKELFAYAIPYVVIGLTIPLYQQIDTLTFNSIMQAIGQGDIAERALGIFTMWTHKLIMIPVSLATAFSLTLVPAITKSFTEKQYRYLKLQITQTFQANMFLTLPAVVGISSLAYPIYTAFYDSDPLGGQVLMWYAPVALLFALFTVTAAILQGINQQKHAIIALIMGVILKFVCNVIFIRYFGTVGAILATAVGFLVSVWYTNQQIKKYAHYSFGVVYKRTFQIAVLTLVMVVTVKLSQWILSFMISPDGRMGALITVAICAGIGGLVYGLLAIRTGVLERVFGGEALEKIQRKLGNRFKIKLKSKGA,failed
6,EKRKVLIPIDFSNYSLKACQFGFSFANAINSEVVLLHAYFSPIYVPTIPYGTDNFNFQIEREESVKSMIETVHNELNKLSDTIKKKVESGEFPNIKYTCILRDGIPEEEILRYAKEYNPQIIIMGTRGRSQKDIDLIGSVTAEVIERSKSFVYAIPEHTPLK,failed
7,MVEAPPPELRILSAGDSSYSGSGWSRVPHVWLRDEIRLSGEPRVRQGKREGDRRFRGRGRDRGRWHLGCPRKALFSNLLGTVYRCGNLNFSRDGNSVISPVGNRVTVFDLKNNRSDTLPLATKYNIKCVGLSPDGRLAIIVDEGGAALLVSLVCRSVLHHFHFKGSVHSVSFSPDGRKFVITKGNIAQMYHAPGKKREFNAFVLDKTYFGPYDETTCIDWTDDSKCFVVGSKDMSTWVFGAERWDNLIYYALSGHKDAIVACFFESNSLDLYSLSQDGALCVWQCDTPPEGLRLKAPRGWKADILQREKEEEEEEDEEGEGNRETTIRGKAVPAEQERVGKVKYSRLAKYFLNKEGDFNNLTAAAYHKKTHLLVTGFASGIFHLHELPEFNLIHSLSISDQRVASVAINSSGDWIAFGCSGLGQLLVWEWQSESYVLKQQGHFNSMVALAYSPDGQYIVTGGDDGKVKVWNTLSGFCFVTLTEHSSGVTGVTFTATGHVIVTSSLDGTVRAYDLHRYRNFRTFTSPRPTQFSCVAVDSSGEIVSAGAQDSFEIFVWSMQTGRLLDVLSGHEGPISGLCFNPMKSILASASWDKTVRLWDMFDSWRTKETLSLTSDVLAVTYRPDGAELAVATLNSQITFWDPENAVQVGSIEGRHDLKTGRKELDKITAKHSAKGKAFTTVCYSADGQNILAGGMSKFVCLYHVREQILVKRFELSCNFSLDAMEEFLNRRKMTEFGNLALIDQDAGEENGVAIPLPGVRKGDMSSRHFKPEIRVTSLRFSPTGRCWAATSTEGLLIFSLDAQMLFDPFELDTSVTPGRIREALRQREFTRAILMAFRLNEKKLAQEALEAVPQNEIEVVSASLPELYVVKVLEFLAASFEESRHLEFYLIWTQKLLMSHGQRLKSRAGQLLPVVQFLQKGLQRHLDDISKLCDWNRYNIQYALAVSKQRGMKRTLEPVDTEEDTDASDEDSLHLLRAAEEEEEGMLV,failed
8,MTWPARRVLYAIWQDPWMTVSRATYISRMLALVNWATWPDDADTSDTPAACVDGDCSRPNAPGERYPTFRWSDALVRELDAVLLSTEPYRFTEDHADALERQIGKPVLLVDGEMLSWYGSRAVAGARYLRSLAQGFLEHHHHHH,failed
9,SEDTMDRINKDHDHTTSVASRFILADVITSTAFSNASGDINTYASSYIEYEVGVDNQLYYAEVRENEPSSSSTFNNSWNGIYSSLKNARIIIDQCGEGGRDHGNDVTRGMAEVMAAYNCALIADFFGDAPCSQAALVDEKGSPVYMTPKMDTQQEIYTQIISYLDDAIANLQKEDLADVTEQDFLYAGDADKWLKFAYGLKARYTMRLINRSSNKSADYEKVLDYVSKSFTSADDQAAFDIYDSNNINPFYGFYNSRAGFGASTSLGTKLLAYNDPRANRAFFTPIVDKKRSQVAANDPSLVPAPNGSPDQSTSKYGISAFVYAKTAPTLLMSYHELMFLKAEALCRLNRDAEDALKEAVVAGLLNAENSISIAIKELGSGLNTNSSEVITETSAGKYFDDVVKAKYAANPLQETMIQKYLAMWGASGEATETYNDFRRMKGLNENFITLTNPNNSSKFPLRYPYGNSDTAANPEVKAAYGNGDYVYSEPVWWAGGSR,not failed
10,MMTLIRITSADDSRLNRLIPLYEESFPESERRKIGQLKRMIENHAPMYFNAIECDGELSGMFVYWDMGDFYYLEHLAVFPEMRNKKIGQQVLDYVAEHLKGVRLLEVEPTEDEMTTRRVNYYRRNGYEVLDKTYVQPSYHA,failed
11,MQDSRPHPHDWNVSTDEAKRIQRRLASEVTERALPDGGETVAGIDVSVRDDTAQAAVSVLRLPELDVVDEATHRCEVPFPYVPGLLSFREMPAVLPALERLHSTPDVFVTDSHGAAHPRRFGLACHLGVLLDAPAIGVAKSILVGAPQGELGPEKGSRVPLVDDGETVGTVLRTRTDVNPVYVSVGHRCTLDGAADLMLDCSPRYKIPEPTRQAHKLSRAEGLEHHHHHH,not failed
12,MNARLENLMQWLKEKNVEAAFLTSTPNVFYMTNIHCEPHERLLGMFVFQEKEPILICPKMEEGQARNAGWAHEIIGFTDTDRPWDMIAKAIKDRGINANAVAIEKEHLNVERYEELTKLFPNAAFTSAEEKVRELRLIKDEKELSILREAAKMADYAVEVGVNAIKEDRSELEVLAIIEHELKTEGIHKMSFDTMVLAGANSALPHGIPGANKMKRGDFVLFDLGVIIDGYCSDITRTVAFGDISEEQTRIYNTVLAGQLQAVEACKPGVTLGAIDNAARSVIADAGYGDFFPHRLGHGLGISVHEYPDVKAGNESPLKEGMVFTIEPGIYVPNVGGVRIEDDIYITKDGSEILTKFPKELQFVK,failed
13,MVQHLTAEEIIQYISDAKKSTPIKVYLNGNFEGITYPESFKVFGSEQSKVIFCEADDWKPFYEAYGSQFEDIEIEMDRRNSAIPLKDLTNTNARIEPGAFIREQAIIEDGAVVMMGATINIGAVVGEGTMIDMNATLGGRATTGKNVHVGAGAVLAGVIEPPSASPVIIEDDVLIGANAVILEGVRVGKGAIVAAGAIVTQDVPAGAVVAGTPAKVIKQASEVQDTKKEIVAALRKLND,not failed
14,MSLVENLSLEPQPKRRKIDPEVKESPSRNCSHWFVRNKVCASCNTIVDNYQGRSFDYLYTGIQMSNEALGFTKRLISQTSWLEDKKLHLVLDLDHTLVHTIKVSQLSESEKYITEEVESRKDLRRFNTGFPEESLIKLRSFVHQFLKECNEMFSLYVYTKGGYDYAQLVLEMIDPDKIYFGNRVITRRESPGFKTLDLVLADERGIVVVDDKSSVWPHDKKNLLQIARYKYFGDQSCLLSECKKKIDESDEKGPLNTALRFLMDVHEEFFCDWSRKDLDSVDVRPLLKEISLRWKRKADGVV,failed
15,MELSAVGERVFAAESIIKRRIRKGRIEYLVKWKGWAIKYSTWEPEENILDSRLIAAFEQKERERELYGPKKRGPKPKTFLLKARAQAEALRISDVHFSVKPSASASSPKLHSSAAVHRLKKDIRRCHRMSRRPLPRPDPQGGSPGLRPPISPFSETVRIINRKVKPREPKRNRIILNLKVIDKGAGGGGAGQGAGALARPKVPSRNRVIGKSKKFSESVLRTQIRHMKFGAFALYKPPPAPLVAPSPGKAEASAPGPGLLLAAPAAPYDARSSGSSGCPSPTPQSSDPDDTPPKLLPETVSPSAPSWREPEVLDLSLPPESAATSKRAPPEVTAAAGPAPPTAPEPAGASSEPEAGDWRPEMSPCSNVVVTDVTSNLLTVTIKEFCNPEDFEKVAAGVAGAAGGGGSIGASK,failed
16,MESLTQYIPDEFSMLRFGKKFAEILLKLHTEKAIMVYLNGDLGAGKTTLTRGMLQGIGHQGNVKSPTYTLVEEYNIAGKMIYHFDLYRLADPEELEFMGIRDYFNTDSICLIEWSEKGQGILPEADILVNIDYYDDARNIELIAQTNLGKNIISAFSN,not failed
17,MQSKRGRPRNIETQKAILSASYELLLESGFKAVTVDKIAERAKVSKATIYKWWPNKAAVVMDGFLSAAAARLPVPDTGSALNDILIHATSLANFLISREGTIINELVGEGQFDSKLAEEYRVRYFQPRRLQAKQLLEKGIKRGELKENLDIELSIDLIYGPIFYRLLVTGEKLDDSYVHDLVINAFEGIRLR,not failed
18,MPGSPRGLCTRSRKSTMSTHGTIGVLGAGEVGQAVADKAVRHGHEVLIGNSRGPRTLEALVGRLGPKARAVTAEEAVQPELVFLSVPFFAVPELTGLTTWAGKIVVDTTNQFAAANPWRGRYDVGDLTGSEWVARHLPGARLVKALNTLFATFIAADPRHAEGRQVAFYAGDDADAKTAVAGLLDEFGFAALDLGGLRDGGRLMQLDGALSAKHLLLQDVG,failed
19,MRNEAFDILKDIPKWKLIFWLLLAITLTPITELIIYRLVTSVIESSLTLTELGKEFIRIFGYEKYKGIKESLWMMIVSYLFLFSIFSSYLYIFYRHEKKLYYETCIKKMIEEIRYIANGNFNHKVSIVNHNYLEELAIGVNEIVEQLKVSIDEERQAEQAKSELITNVSHDLRTPLTSIVGYVNLIHHDNYRDEVELRYYIQVIYDKVTRLNALMNDLFEYTRVQNKELSLYSVPIDIVELLGQLTVQFRIQVQEANIECRPSFPSQKLMVLADGDKLVRVFENLIINAIAYGSEGRYIDLTAYESNNMITIDITNYGQPIPSTDLPHIFERFYRVEKSRSTNTGGSGLGLAIAKSIVELHKGTIEVYSDDEKTTFTVKLLPYKC,failed
20,MYIPNAFRESDTHNLQEHMDKTRLAILVTQGDDGLHATHLPLLLRSDEGPYGTLYGHMAKANPQWQQLNADAEAMVIFPGEDAYVSPSFYPSKAEHGKVVPTWNYLAVHAYGQAECFTDPDRLHQLLNDLTDRHESSRAQPWSINDAPADYIAKMLGAIVGFSIPVQRLQGKRKLSQNRSAEDMAGVRDGLGASHLANDQQIARLMSGWRPS,not failed
21,MKKSLDEHAERFSDHADAYDEDQDSAAYRACVNFVVDHAAPESDDVVLDLGTGTGAIAFALASDAAEIIGRDISDGMLEKAREKADGRGVENVSFGDGRFRAPNVDRPVDIVTSNFAMHHLGDDEKREAIDTIADLGPRRIVLGDVMLFGDDDPDAPFYSPEVDDPATVGVLADAFTDAGYALTAVEMVTEQAGVLVAERVKSDLEHHHHHH,not failed
